Measurements reported in patent US20190257845A1, “METHOD FOR CALORIMETRIC DETERMINATION OF THE LIPOPROTEIN LIPASE ACTIVITY IN HUMAN PLASMA ENVIRONMENT” (Tallinn University of Technology, priority 2016, published 2019).

Tests used:
[1] = target: T1, lipoprotein lipase (LPL) (Bos taurus, UniProt P11151); assay: ITC measurement of LPL activity in human plasma with added regulators or inhibitors; format: biochemical, bovine; conditions: for effect on activity of LPL in plasma: LPL 0.6 nM
T1 construct: Bovine LPL was purified from milk; from tissue; host or cells: bovine milk
T1 sequence (P11151 29-478): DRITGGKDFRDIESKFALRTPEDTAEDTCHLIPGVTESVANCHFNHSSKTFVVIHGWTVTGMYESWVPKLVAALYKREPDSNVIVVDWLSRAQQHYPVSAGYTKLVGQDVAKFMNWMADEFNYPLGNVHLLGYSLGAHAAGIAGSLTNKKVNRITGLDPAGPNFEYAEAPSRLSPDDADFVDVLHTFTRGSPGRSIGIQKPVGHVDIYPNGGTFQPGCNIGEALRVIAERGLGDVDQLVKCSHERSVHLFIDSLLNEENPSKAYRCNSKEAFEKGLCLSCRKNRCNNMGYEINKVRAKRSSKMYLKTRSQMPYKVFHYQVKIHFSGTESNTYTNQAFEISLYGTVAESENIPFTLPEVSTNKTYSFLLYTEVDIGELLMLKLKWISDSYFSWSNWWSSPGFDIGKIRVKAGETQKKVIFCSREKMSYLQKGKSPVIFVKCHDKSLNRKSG
Experimental: Preparing the reagents—Bovine LPL was purified from milk (Bengtsson-Olivecrona & Olivecrona 1991) and dialysed to buffer containing 10 mM TRIS, pH 8.5 (4° C.), 4 mM sodium deoxycholate. Stock solutions of 0.5 mg/ml LPL were stored at −80° C. The N-terminal coiled-coil domain of human angiopoietin-like protein 4 (ANGPTL4), residues 26-184, was expressed in E. coli and purified as described (Robal et al. 2012). Full-length human angiopoietin-like protein 3 (ANGPTL3) expressed in Sf 21 cells was obtained from R&D Systems (USA). Apolipoprotein C-III0 was from human blood plasma (Bengtsson-Olivecrona & Sletten 1990). Apolipoprotein C-II and apolipoprotein A-V were expressed in E. coli and purified as described (Shen et al. 2010; Beckstead et al. 2003). A synthetic peptide corresponding to the N-terminal domain of human GPIHBP1, residues 23-51, was bought from Caslo (Denmark). The sequence of the peptide was as follows: […]. Antibodies (goat IgG) to human hepatic lipase were raised in a goat against hepatic lipase isolated from human post-heparin plasma (Olivecrona & Olivecrona 2000). The IgG fraction was isolated using Protein-A columns and the final preparation contained 5 mg protein per milliliter in 20 mM Na-phosphate buffer and 0.15 M NaCl (pH 7.4).
Sample preparation—Before experiments the human plasma samples were diluted 1.2 times with TRIS buffer pH 7.4 or with the additions specified for each experiment. The final concentration of TRIS was 20 mM in all cases. Stock solutions of LPL were diluted in cold 10 mM TRIS, pH 8.5, containing 4 mM sodium deoxycholate. In this buffer, LPL is stable for a long period of time, even at low protein concentrations The final concentration of deoxycholate during incubations with plasma or lipoproteins was 10 to 100 times lower than the initial. […] In experiments with post-heparin plasma, antibodies to hepatic lipase (in PBS) or the same volume of PBS only were added (180 μl of IgG or PBS was mixed with 360 μl of post-heparin plasma) and the mixture was then incubated for 2 hours on ice prior to experiments (Olivecrona & Olivecrona 2000). All samples were degassed under vacuum for 15 minutes before the ITC experiments.
(§1) ITC measurements—Most of the experiments were performed on an Nano ITC model 5300 (TA Instruments, USA) at 25° C. A MicroCal Auto-iTC200 (GE Healthcare) instrument was used for experiments regarding relationship between total heat production and released fatty acids. In a typical experiment performed by Nano ITC, the lipase substrate (plasma, Intralipid 20% or VLDL) with or without added ligands was placed into the calorimetric cell (1035 μl) and the syringe (250 μl) was filled with LPL-containing solution (bovine LPL or post-heparin plasma) (see FIG. 1A). MilliQ water was loaded into the reference cell (1032 μl). The stirring speed in the sample cell was 400 rpm. The baseline was left to stabilize for at least 1 hour before injections of LPL or post-heparin plasma. In all experiments, the first injection was 2 μl and after that single or sequential injections of 10 to 25 μl were made. The interval between the injections was from 200 s to 500 s. In experiments performed by MicroCal Auto-iTC200, 400 μl of lipase substrate (plasma), 400 μl of equilibration buffer (20 mM TRIS, pH 7,4) and a sufficient volume of LPL (0.8 μM) were placed on the loading plate. The calorimetric cell (200 μl) was rinsed with equilibration buffer and loaded with 200 μl of substrate in an automated fashion. The syringe was loaded with 40 μl of LPL-containing solution. The stirring speed in the sample cell was 600 rpm and the baseline was stabilized automatically. The first injection of LPL was 0.2 μl and the second injection was 2 μl. The experiment time was 1 hour to allow full hydrolysis of plasma triglycerides.After each experiment the Nano ITC sample cell was washed with the following solutions, one after the other: MilliQ water, 2% SDS, 40 mM NaOH and finally 95% ethanol. […]

[2] = target: T1, lipoprotein lipase (LPL); assay: ITC measurement of Intralipid hydrolysis by LPL, activation by apoC-II; format: biochemical, bovine; conditions: Intralipid substrate
Experimental: The substrate mixture composition was as follows: 1 mg triglyceride/ml Intralipid, 10 mg/ml BSA, 10 IU/ml heparin, 0.15 M NaCl, 10 mM TRIS pH 7.4. […] Final concentration of LPL was 1.2 nM in all experiments.
Heat rate points at 200 s were obtained from FIG. 5a. The data were fitted using the following equation (Quinn et al. 1983): […]
as §1, with “[…] Raw ITC data were analysed using” for “The experiment time was 1 hour to allow full hydrolysis of plasma triglycerides.After each experiment”, “NanoAnalyze (TA Instruments) Or MicroCal Origin (GE Healthcare).” for “Nano ITC sample cell was washed with the following solutions, one after the other: MilliQ water, 2% SDS, 40 mM NaOH and finally 95% ethanol.”

**Q.** What does the source list for CCCCCCCCCCC[C@@H](C[C@@H]1OC(=O)[C@H]1CCCCCC)OC(=O)[C@H](CC(C)C)NC=O [THL, tetrahydrolipstatin, reference compound]?
**A.** immediate drop of the activity of LPL ([1]; 10 μM THL, human plasma, LPL 1 nM, unchanged afterwards): 80%; THL concentration at which inhibition of LPL was detectable ([1]; human plasma, LPL 1 nM): 90 nM

**Q.** Which “protection of LPL from inactivation by ANGPTL4” value ([1]; 100 nM ANGPTL4, LPL 0.6 nM, TG 1 mM) does the source give for “QQEEEEEDEDHGPDDYDEEDEDEVEEEET [N-terminal peptide of GPIHBP1, synthetic peptide corresponding to the N-terminal domain of human GPIHBP1, residues 23-51, reference compound]” here?
**A.** The value was “could not protect LPL from inactivation”.

B1: ANGPTL3: Full-length human angiopoietin-like protein 3 expressed in Sf 21 cells, from R&D Systems (protein, UniProt Q9Y5C1 1-460, looked up)
chain: MFTIKLLLFIVPLVISSRIDQDNSSFDSLSPEPKSRFAMLDDVKILANGLLQLGHGLKDFVHKTKGQINDIFQKLNIFDQSFYDLSLQTSEIKEEEKELRRTTYKLQVKNEEVKNMSLELNSKLESLLEEKILLQQKVKYLEEQLTNLIQNQPETPEHPEVTSLKTFVEKQDNSIKDLLQTVEDQYKQLNQQHSQIKEIENQLRRTSIQEPTEISLSSKPRAPRTTPFLQLNEIRNVKHDGIPAECTTIYNRGEHTSGMYAIRPSNSQVFHVYCDVISGSPWTLIQHRIDGSQNFNETWENYKYGFGRLDGEFWLGLEKIYSIVKQSNYVLRIELEDWKDNKHYIEYSFYLGNHETNYTLHLVAITGNVPNAIPENKDLVFSTWDHKAKGHFNCPEGYSGGWWWHDECGENNLNGKYNKPRAKSKPERRRGLSWKSQNGRLYSIKSTKMLIHPTDSESFE
modifications: full-length
notes: Full-length human angiopoietin-like protein 3 expressed in Sf 21 cells, from R&D Systems
**Q.** B1 was tested. Which “concentration at which effect on LPL in plasma was detectable” value ([1]; human plasma) did it give?
**A.** The value was “detectable already at nanomolar concentrations”.

B2: apoC-II: Apolipoprotein C-II expressed in E. coli; activator of LPL (protein, UniProt P02655 29-101, looked up)
Apolipoprotein C-II: DEMPSPTFLTQVKESLSSYWESAKTAAQNLYEKTYLPAVDEKLRDLYSKSTAAMSTYTGIFTDQVLSVLKGEE
**Q.** Which “estimated maximal activation factor of LPL” value ([2]; 1.2 nM LPL, apoC-II 0 to 1000 nM, heat rate at 200 s, model of Quinn et al. 1983) does the source give for B2 here?
**A.** The value was 4.2±1.2.

**Q.** What about the Kd ([2]; 1.2 nM LPL, heat rate at 200 s, model of Quinn et al. 1983, read-out: Kd value (affinity of apoC-II for LPL)) of the same molecule?
**A.** The Kd was 22 ± 8 nM.

**Q.** What about the “effect on stability of LPL” value ([2]; LPL not stable without apoC-II or below 100 nM) of the same molecule?
**A.** Its value is “stabilized LPL”.

B3: apoA-V: apolipoprotein A-V expressed in E. coli (protein, UniProt Q6Q788 24-366, looked up)
Apolipoprotein A-V: RKGFWDYFSQTSGDKGRVEQIHQQKMAREPATLKDSLEQDLNNMNKFLEKLRPLSGSEAPRLPQDPVGMRRQLQEELEEVKARLQPYMAEAHELVGWNLEGLRQQLKPYTMDLMEQVALRVQELQEQLRVVGEDTKAQLLGGVDEAWALLQGLQSRVVHHTGRFKELFHPYAESLVSGIGRHVQELHRSVAPHAPASPARLSRCVQVLSRKLTLKAKALHARIQQNLDQLREELSRAFAGTGTEEGAGPDPQMLSEEVRQRLQAFRQDTYLQIAAFTRAIDQETEEVQQQLAPPPPGHSAFAPEFQQTDSGKVLSKLQARLDDLWEDITHSLHDQGHSHLGDP
**Q.** Which “effect on activity of LPL in plasma” value ([1]; 10 nM apoA-V, TG 1 mM) does the source give for B3 here?
**A.** Its value is “did not change the activity of LPL”.

**Q.** What about the “effect on activity of LPL in plasma” value ([1]; 100 nM apoA-V, TG 1 mM) of the same molecule?
**A.** The value was “some inhibition was observed”.
